This assay deals with human OX40 (human) (UniProt P43489). Nature of the assay: cell-based or functional assay.
Chain of UniProt P43489 (P43489 29-277): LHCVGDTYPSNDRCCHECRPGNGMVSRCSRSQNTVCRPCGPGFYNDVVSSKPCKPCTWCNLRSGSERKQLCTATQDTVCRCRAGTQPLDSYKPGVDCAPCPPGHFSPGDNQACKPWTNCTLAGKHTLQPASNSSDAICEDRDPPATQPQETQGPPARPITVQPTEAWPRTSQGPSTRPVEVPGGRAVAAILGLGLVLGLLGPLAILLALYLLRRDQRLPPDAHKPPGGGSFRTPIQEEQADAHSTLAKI

On to “soluble OX40 ligand (BPS Biosciences, Catalog #71185) (from UniProt P23510 51-183)”, for which the EC50 for T cell costimulation (proliferation of activated CD4+ Teff cells, CellTiter-Glo) was determined as 14 µg/mL.

The record behind these values is US20240182594A1.
